The text below walks through data of patent US20180105832A1 (FRAUNHOFER GESELLSCHAFT ZUR FOERDERUNG DER ANGEWANDTEN …, published 2018).

For the experiment, the target named is T1, Pepscan peptide 3 of CSP (amino acids 25-37) (Aspergillus flavus).
T1 peptide: YDDPDCDPGFTCR
Kind of experiment: Pepscan-ELISA.

B1: Aspergillus-specific monoclonal antibody AP10 (mAbAP10) (antibody, V domains shown)
VH: DVQLVESGGGLVQPGGSRKLSCAASGFTFSSFGMHWVRQAPEKGLEWVAYINGGSGTIYYADTVKGRFTISRDNPRNTLFLQMETTSLRSEDTAMYYCARGGDDPFAYWGQGTLVTV
VL: IQMTQSPSSLSAYLGDKVTITCMASQDINNHIAWYQLKPGKGPRLLIHYTSTLHPGIPSRFSGSGSGRDYSFSISDLEPEDIATYYCLQYDNLRTFGGGTKLEIK
notes: also called CSP-specific mAbAP10
For B1, the “binding efficiency relative to peptide 4” value came to 2 fold.
